Data from PMC4564187, “Pharmacokinetic and Pharmacodynamic Characterisation of an Anti-Mouse TNF Receptor 1 Domain Antibody Formatted for In Vivo Half-Life Extension” (PLoS ONE, 2015).
One block for each binder: values may come before it.

Tests used:
recombinant mouse sTNFR1 [1] = target: T1, recombinant mouse sTNFR1 (mouse, UniProt P25118 30-212); experiment: cell-based or functional assay
T1 sequence (looked up): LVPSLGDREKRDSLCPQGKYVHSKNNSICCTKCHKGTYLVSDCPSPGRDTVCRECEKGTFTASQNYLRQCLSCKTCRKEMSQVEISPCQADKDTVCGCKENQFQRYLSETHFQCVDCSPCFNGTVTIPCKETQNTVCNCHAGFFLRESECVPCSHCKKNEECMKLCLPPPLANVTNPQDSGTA

recombinant mouse sTNFR1 [2] = target: T1, recombinant mouse sTNFR1; experiment: SPR; Biacore T200, HBS-EP+, 25°C; mouse or human TNFR1 amine-coupled on CM5 chip; DMS5540 injected at 7 concentrations, 2-fold dilutions from 16 nM to 0.125 nM, 50 μl/min; 1:1 binding model; conditions: both partners purified

B1: DOM1m-21-23 (antibody, V domains shown)
VH: EVQLLESGGGLVQPGGSLRLSCAASGFTFNRYSMGWLRQAPGKGLEWVSRIDSYGRGTYYEDPVKGRFSISRDNSKNTLYLQMNSLRAEDTAVYYCAKISQFGSNAFDYWGQGTQVTVSS
EC50 of inhibition of mouse TNF-α (20 pg/ml) induced cytotoxicity in mouse L929 cells (recombinant mouse sTNFR1 [1]): 1.7 nM

Kd (recombinant mouse sTNFR1 [2]): 0.27 nM
koff (recombinant mouse sTNFR1 [2]): 0.000217 s⁻¹
kon (recombinant mouse sTNFR1 [2]): 798000 M⁻¹ s⁻¹
B2: DMS5540 (bispecific antibody)
chain: EVQLLESGGGLVQPGGSLRLSCAASGFTFNRYSMGWLRQAPGKGLEWVSRIDSYGRGTYYEDPVKGRFSISRDNSKNTLYLQMNSLRAEDTAVYYCAKISQFGSNAFDYWGQGTQVTVSSASTDIQMTQSPSSLSASVGDRVTITCRASRPIGTMLSWYQQKPGKAPKLLILFGSRLQSGVPSRFSGSGSGTDFTLTISSLQPEDFATYYCAQAGTHPTTFGQGTKVEIKR
notes: anti-mouse TNFR1 VH dAb DOM1m-21-23; three residue linker (Ala-Ser-Thr); About 25 kDa; two human single variable domains on one chain; also called mouse TNFR1 antagonist; genetic fusion of DOM1m-21-23 with the AlbudAb DOM7h-11-12; source: E. coli BL21(DE3) strain derivatives, purified from culture supernatant (Protein-A, cation exchange, SEC when necessary)
EC50 of inhibition of mouse TNF-α (20 pg/ml) induced cytotoxicity in mouse L929 cells (recombinant mouse sTNFR1 [1]): 1.3 nM
